Residue numbers refer to the chain shown, from its start.
How the values were obtained:
human BDCA2 [1] = biological target: T1, human BDCA2 (human, UniProt Q8WTT0 1-213); test: cell-based or functional assay
T1 sequence (looked up): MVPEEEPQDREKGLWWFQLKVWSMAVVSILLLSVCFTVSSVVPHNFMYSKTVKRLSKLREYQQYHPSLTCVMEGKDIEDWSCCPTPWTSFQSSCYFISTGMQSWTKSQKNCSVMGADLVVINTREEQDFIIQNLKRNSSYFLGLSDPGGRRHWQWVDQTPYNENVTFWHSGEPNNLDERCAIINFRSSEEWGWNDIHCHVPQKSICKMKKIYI

human BDCA2 [2] = biological target: T1, human BDCA2; test: FACS, CHOK1-humanBDCA2 cells
Method: (§1) The cells were recovered and resuspended to 2×10⁶/mL with FACS buffer (PBS+2% FBS). The resuspended cells were added to 3799 cell plates at 100 μL/well, and the supernatant was discarded after centrifugation at 300 g. […] The cells were incubated at 4° C. for 1 h. The incubated cells were centrifuged at […] for 5 min and washed twice with FACS buffer. 100 μL Goat anti-Human IgG (H+L) Cross-Adsorbed Secondary Antibody, Alexa Fluor 488 (Sigma, A11013; 1:1000) secondary antibody was added, washed twice with FACS buffer after incubation at 4° C. for 1 h. The cells were resuspended with PBS, then the fluorescence signal of antibodies bound to cell surface was analyzed with FACS (BD FACS CantoTM II) instrument and curves were fitted with GraphPad Prism6 to calculate EC₅₀ values for antibodies binding to BDCA2 antigen.

cynomolgus BDCA2 = biological target: T2, cynomolgus BDCA2 (cynomolgus monkey, UniProt A0A2K5UWP4 1-212); test: FACS, 293F-cynoBDCA2 cells
T2 construct: whole, on cells; also called Cyno BDCA2; cynoBDCA2
T2 sequence: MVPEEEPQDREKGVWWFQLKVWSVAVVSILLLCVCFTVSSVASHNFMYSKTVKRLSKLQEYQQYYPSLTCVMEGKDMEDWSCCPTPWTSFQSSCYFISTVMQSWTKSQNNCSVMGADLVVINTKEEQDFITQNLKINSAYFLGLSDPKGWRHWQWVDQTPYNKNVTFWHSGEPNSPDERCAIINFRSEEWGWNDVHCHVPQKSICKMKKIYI
Method: as §1

Recombinant Human BDCA2 = biological target: T3, Recombinant Human BDCA2 (human, UniProt Q8WTT0 45-213, limits assumed); test: SPR (BIAcore), antibody captured by anti-human IgG (Fc), hBDCA2 as analyte, 1:1 model
T3 construct: also called hBDCA2 (SPR analyte); human BDCA2 antigen
T3 sequence (looked up): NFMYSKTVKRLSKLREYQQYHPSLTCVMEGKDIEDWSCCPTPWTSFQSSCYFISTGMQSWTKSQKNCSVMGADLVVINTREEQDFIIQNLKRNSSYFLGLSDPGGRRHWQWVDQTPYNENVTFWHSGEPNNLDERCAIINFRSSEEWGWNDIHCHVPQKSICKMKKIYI
Method: Then 1 M ethanolamine was injected at 10 μL/min flow rate for 420 seconds, and the excess active carboxyl groups on chip were blocked. The humanized antibodies were injected into a detection channel flow cell at flow rate of 10 μL/min for 60 s for capture after diluting to 1 μg/mL using running buffer. […] The sample hBDCA2 to be tested of each concentration gradient was injected into the detection channel at 30 μL/min flow rate, two samples at 0 concentration were used to remove background signal. The binding and dissociation times between antigen and antibody were 180 and 400 sec, respectively. An analysis of data was performed using Biacore Insight Evaluation Software (Version 2.0. 15.12933). A 1:1 binding model was selected for curve fitting and kinetic parameters were calculated after subtraction of signal of the reference channel (flow cell 1) and at 0 concentration.

B1: Hu033-02 (antibody, IgG1, V domains shown)
VH: EVQLVESGGGLVKPGGSLRLSCAASGFTFSSYGMSWVRQAPGKGLEWVSTISSGDSYTYYPDSVKGRFTISRDNAKNSLYLQMNSLRAEDTAVYYCARQIYYDYAYYFDFWGQGTTVTVSS
VL: DIVLTQSPASLAVSPGQRATITCRASESVSFRTSHLMHWYQQKPGQPPKLLIYGASNLESGVPARFSGSGSETDFTLTINPVEAEDTANYYCQQSIEDPPTFGGGTKVEIK
notes: Humanized IgG1; also called Hu033-02(BM2)
EC50 (nM), inhibition of CpG-A stimulated IFNα release from human PBMC (human BDCA2 [1]): 0.02 nM
EC50 (human BDCA2 [2]): 440 pM
EC50 (cynomolgus BDCA2): 1200 pM
Kd (Recombinant Human BDCA2): 239 pM
koff (Recombinant Human BDCA2): 0.000169 s⁻¹
kon (Recombinant Human BDCA2): 707000 M⁻¹ s⁻¹

B2: Hu033-16 (antibody, IgG1, V domains shown)
VH: B1 VH with S30R, G44R
VL: EIVLTQSPATLSLSPGERATLSCRASESVSFRTSHLMHWYQQKPGQAPRLLIYGASNLESGIPARFSGSGSETDFTLTISRLEPEDFAVYFCQQSIEDPPTFGGGTKVEIK
notes: Humanized IgG1; also called Hu033-16(BM4)
EC50 (nM), inhibition of CpG-A stimulated IFNα release from human PBMC (human BDCA2 [1]): 0.01 nM
EC50 (human BDCA2 [2]): 630 pM
EC50 (cynomolgus BDCA2): 1370 pM
Kd (Recombinant Human BDCA2): 191 pM
koff (Recombinant Human BDCA2): 0.000108 s⁻¹
kon (Recombinant Human BDCA2): 569000 M⁻¹ s⁻¹

B3: Hu033-04 (antibody, IgG1, V domains shown)
VH: B1 VH
VL: DIVMTQSPDSLAVSLGERATINCRASESVSFRTSHLMHWYQQKPGQPPKLLIYGASNLESGVPDRFSGSGSGTDFTLTISSLQAEDVAVYYCQQSIEDPPTFGGGTKVEIK
notes: Humanized IgG1; also called Hu033-04(BM0)
EC50 (nM), inhibition of CpG-A stimulated IFNα release from human PBMC (human BDCA2 [1]): 0.03 nM
EC50 (human BDCA2 [2]): 610 pM
EC50 (cynomolgus BDCA2): 1330 pM
Kd (Recombinant Human BDCA2): 323 pM
koff (Recombinant Human BDCA2): 0.000193 s⁻¹
kon (Recombinant Human BDCA2): 598000 M⁻¹ s⁻¹

B4: Hu033-13 (antibody, IgG1, V domains shown)
VH: B1 VH with S30R, G44R
VL: B3 VL with M4L, Y91F
notes: Humanized IgG1; also called Hu033-13(BM4)
EC50 (nM), inhibition of CpG-A stimulated IFNα release from human PBMC (human BDCA2 [1]): 0.01 nM
EC50 (human BDCA2 [2]): 680 pM
EC50 (cynomolgus BDCA2): 1130 pM
Kd (Recombinant Human BDCA2): 338 pM
koff (Recombinant Human BDCA2): 0.000153 s⁻¹
kon (Recombinant Human BDCA2): 454000 M⁻¹ s⁻¹

B5: Hu033-15 (antibody, IgG1, V domains shown)
VH: B1 VH with S30R, G44R
VL: B2 VL with E72G, F91Y
notes: Humanized IgG1; also called Hu033-15(BM2)
EC50 (nM), inhibition of CpG-A stimulated IFNα release from human PBMC (human BDCA2 [1]): 0.02 nM
EC50 (human BDCA2 [2]): 760 pM
EC50 (cynomolgus BDCA2): 1270 pM
Kd (Recombinant Human BDCA2): 467 pM
koff (Recombinant Human BDCA2): 0.000227 s⁻¹
kon (Recombinant Human BDCA2): 487000 M⁻¹ s⁻¹

B6: Hu033-08 (antibody, IgG1, V domains shown)
VH: B1 VH
VL: B2 VL
notes: Humanized IgG1; also called Hu033-08(BM2)
EC50 (nM), inhibition of CpG-A stimulated IFNα release from human PBMC (human BDCA2 [1]): 0.02 nM
EC50 (human BDCA2 [2]): 620 pM
EC50 (cynomolgus BDCA2): 1530 pM
Kd (Recombinant Human BDCA2): 229 pM
koff (Recombinant Human BDCA2): 0.000169 s⁻¹
kon (Recombinant Human BDCA2): 740000 M⁻¹ s⁻¹

B7: Hu033-12 (antibody, IgG1, V domains shown)
VH: B1 VH with S30R, G44R
VL: B3 VL
notes: Humanized IgG1; also called Hu033-12(BM2)
EC50 (nM), inhibition of CpG-A stimulated IFNα release from human PBMC (human BDCA2 [1]): 0.02 nM
EC50 (human BDCA2 [2]): 450 pM
EC50 (cynomolgus BDCA2): 1070 pM
Kd (Recombinant Human BDCA2): 283 pM
koff (Recombinant Human BDCA2): 0.000149 s⁻¹
kon (Recombinant Human BDCA2): 527000 M⁻¹ s⁻¹

B8: Hu033-23 (antibody, IgG1, V domains shown)
VH: B1 VH with S30R, G44R, R87K
VL: B2 VL with E72G, F91Y
notes: Humanized IgG1; also called Hu033-23(BM3)
EC50 (nM), inhibition of CpG-A stimulated IFNα release from human PBMC (human BDCA2 [1]): 0.03 nM
EC50 (human BDCA2 [2]): 790 pM
EC50 (cynomolgus BDCA2): 1240 pM
Kd (Recombinant Human BDCA2): 444 pM
koff (Recombinant Human BDCA2): 0.000207 s⁻¹
kon (Recombinant Human BDCA2): 466000 M⁻¹ s⁻¹

B9: Hu033-06 (antibody, IgG1, V domains shown)
VH: B1 VH
VL: B3 VL with M4L, G72E, S81P, Y91F
notes: Humanized IgG1; also called Hu033-06(BM3)
EC50 (nM), inhibition of CpG-A stimulated IFNα release from human PBMC (human BDCA2 [1]): 0.02 nM
EC50 (human BDCA2 [2]): 620 pM
EC50 (cynomolgus BDCA2): 1410 pM
Kd (Recombinant Human BDCA2): 170 pM
koff (Recombinant Human BDCA2): 0.000125 s⁻¹
kon (Recombinant Human BDCA2): 733000 M⁻¹ s⁻¹
